# Columns and labels:
# [1] = system: cells; assay: Intracellular transfection efficiency of D-R9 structures complexed with luciferase DNA; type: cell-based; details: complexes with luciferase DNA, charge ratio 1:5; FIG. 4
# Description: In the PEG-R9 structure, PEG was attached to C-(D-R9)-C. To confirm whether the C-(D-R9)-C structure was optimum, the C-(D-R9)-C structure was compared with G-(D-R9)-G, G-(D-R9)-C, and C-(D-R9)-G structures. Each of the G-(D-R9)-G, G-(D-R9)-C, C-(D-R9)-G, and C-(D-R9)-C delivery systems formed complexes with luciferase DNA in a charge ratio of 1:5. The intracellular transfection efficiencies of the complexes into cells were evaluated.
# [2] = system: SCC7 cells; assay: MTT assay for cell viability; type: cell-based; details: FIG. 6
# Description: Cell viability was measured by MTT [3-(4,5-dimethylthiazol-2-yl)-2,5-diphenyltetrazolium bromide] assay.
# SCC7 cells were incubated in a 24-well plate and treated with R9, PEG-R9 complexes, and PEI complexes in the specified charge ratios. 48 h after transfection, 50 μl of MTT reagent and 500 μl of a medium were added to each well, followed by culture at 37° C. for 3 h. After removal of the culture media, 500 μl of dimethyl sulfoxide (DMSO) was added to each well, followed by culture at room temperature for 20 min. The absorbance was measured at 570 nm.
# [3] = Sizes and zeta potentials of siVEGF conjugates with different delivery systems; type: physicochemical; details: FIG. 7
# Description: siVEGF was conjugated with different kinds of delivery systems. The sizes and zeta potentials of the conjugates were analyzed to find which delivery system would be optimal for siRNA delivery. A group of cys-R9-cys, PEG-R9, and PEG-cys-R9-cys delivery systems and a group of PEG-cys-R9-cys, PEG-TAT, and PEG-cys-TAT-cys delivery systems were used, and their mean diameters were measured and compared.
# [4] = system: SCC7 cells; assay: Luciferase assay for gene expression efficiency; type: cell-based; details: plasmid luciferase 4 μg, charge ratio 12, 48 h, FIG. 6
# Description: In this example, luciferase gene expression was measured using a luciferase assay kit and cell viability was analyzed by MTT assay.
# A luciferase assay kit was purchased from Promega (USA). A DC protein assay kit and a bovine serum albumin standard were purchased from Bio-Rad Laboratories (USA). SCC7 cells were seeded onto a 24-well plate at 2×10^4 cells/well. 24 h after seeding, the cells were transfected with plasmid luciferase (4 μg)/PEG-R9 complexes (charge ratio 12).
# PEI complexes in a charge ratio of 8 were used as control. After 48-h incubation, the cells was washed with PBS and treated with 150 μl of a 1× cell lysis buffer reagent for 20 min. The cell lysate was obtained by scrapping, transferred to a 1.5 ml microtube, and centrifuged at 13,000 rpm for 3 min. The luminescence values of the cell lysate were measured using a 96-well plate photometer (Berthold Detection Systems, Germany) with a 20 s integration time and were expressed as relative luminescence units (RLU) per mg of cell protein.
# Proteins were determined with the DC protein assay kit using the bovine serum albumin standard. Based on the above procedure, PEG500 and PEG1000 were compared to find which one would be most optimal.
Substance,intracellular transfection efficiency [1],cytotoxicity (in words) ([2]; 48 h after transfection),cell viability [2],particle size compared with the PEG-unbound delivery system [3],intracellular gene delivery efficiency by luciferase assay [4]
Cys-(D-R9)-Cys [C-(D-R9)-C],high transfection efficiencies,–,–,–,–
PEG-Cys-(D-R9)-Cys [PEG-R9],–,much lower than the other gene delivery systems,at least 95%,smaller,efficiently deliver the gene into the cells
